The nature of the series: protease stability score; higher = more stable; yeast display proteolysis, trypsin and chymotrypsin.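 Note: log10 excess protease needed over predicted unfolded state with 0 meaning unfolded.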
“DEEVADNFRKLLHNLEQGDKRRVKEMVDENAHIVVGDKVYHGWETAAQDLVRLMHEIHFTITSVHVEVSNGRVRLKVHMKINVNGKPFRMVFTQEIEAENGTVKYINVQFDPEVLRRIES” showed a protease stability score of 0.97.

The sequence “DEEVAEQAAKLLEHNDFEKLVDMVDPNVDVEYGDKTVSGRNRVKRVMEKWTRRYDHYEIHTYSISNGRLSADVRAVVNGREVRYVQTIRVHNGRIQKMKIDVTDEDDERNLRKLES” gave a protease stability score of -0.161.

With “DEEVAKKMMEAWMKALQNGNDEQMKKLYDPTVRWEDGNTEKQGLEVVVKLVQTVKKKGIEFQVRKAKVKGNQVEVHYDMKVGDDTVTFTVQFRAQGGRIQEVRVEISEEARKAVKKG”, the protease stability score is 1.22.

Regarding “DEEVAKKMMETWQKVVQKGNDKDARELYKPNGEWVDGDEKHQGVDYVVKALQRVKKYGAEFQVRKAKVEGDTATMVYDLRIGDKTVTFVVQMQADGGRVERVQVKMNEEAKKAVTHG”, the protease stability score worked out at 0.786.

In the case of “DEEVAKRMAETWVKAVEKGDTDQVQKVYKPNVEWVAGDEKHQGVEVVKKMMQKVKKLGVEFQLRKRKVEGGTVEFHYDMKNGNDTVTFTVRIDAEGGRVDRVEVEFDEKAQKVVKKG”, the protease stability score was 0.183.

The sequence “DEEVAKTMAEQWIKAVQKGDKEKLVKHYKPNVQWIDGDERTQGTDVVRKVMETAQKRGVEFQVRKRKVEGDQFEIVYDANVGNKTATFDIKFQVKGGKMEEMRVEVDERAKKVRKEG” gave a protease stability score of 0.094.

With “DEEVANTAVKVAQTGDFQQMVEHADPNVRAVVGDKEYHGREQFQEAMTIIRERVDHYHVDKITIEGDDVRVDMQIDFNGRRVRAEVSIRASNGRIKEMHINARDEDDHRTLRKLLK”, the protease stability score came to 0.432.

As for “DEEVAQDVRRNVERGDWKRWAELADENARVSVGDNTYEGRNDWHKYVKDLEHQVDHFEVKHITIENGKIKVDFVLTVNGHEVRMKQVIVVTNGRISRLRIQATDTDVQRQLNEAMR”, the protease stability score was -0.066.

For the sequence “DEEVAREMMTKWMRAVQKGDPDTVDKIYNPNGKWKAIDTERQGSEHIKKVMQRVKKQGVEFQVRKAKVEGNQAVVIYDFKLANKTVTFTVELRVQGGRVKEVRVEVDEEAKKDMKKG”, the protease stability score was 1.14.

“DEEVEDLYQKIKRAQETGDHKQLRDNFDEEVRIKVGDKTIHGMTRAAKKITREWRHINIDVKVEHVQISNGRLRVRYRFVENDNGKPKTTAANFSMEAHNGRVKHVHVQDDS” yielded a protease stability score of 0.112.

For the sequence “DEEVEEQVKELKRILETGDEDRMQENADPNVRAVYGNKEIHGRDQLREEIRSLKDEMRYEVEIKDYRIRPNEADVRATWHMRVNGQPMRQEVKVKIKFHNGKLKVFVLDFDEEHEKRSRK”, the protease stability score was -0.054.

In turn, “DEEVEEVIHRLVKALRTNNPDQVNQQLDKDARIKVGDKEIQGRDRYKRTVEQKIQEMNFHIHIKRLEVQGDKVRITAQESSEHNGQPRQRRLKFELRVKNGRVKSAEYHVDK” returned a protease stability score of 0.183.

With “DEEVEHQFRTYERALRQGDEQELRDQVDKNAEIEYGDRKIHGMDRAARKIARRVRELRVEDNFVSLEVKENHVQKNVDVVIEVNGRPVRFRADMQVQVHNGKVKEIRVQVPEEVQKRVKE”, the protease stability score was determined as 0.127.

In turn, “DEEVERLFKRFMSAVDEGNPDELKKQIDPNAKQHIGDKTYHGRETIASRIVKRRQKMRVTWKSISITDHNGTIKVTAHAVFNHNGRPKEVQLDIEVRAHGDQMKNFRVQVRG” registered a protease stability score of 0.328.

For “DEEVFDEFIKHMETGDFRYLQRMFDPNAKASVGNKTVHGREQVQTLLEQLHSQVDHYHLKDVDNNENRMRVHFVLNVNGKNIEAENVFEVRNGRLKHLSIKFRNPEDQEDARRRLE”, the protease stability score amounted to 1.12.

Sequence “DEEVHKAITHYIEALHKGDPDRAANQMDENVRIEIGDKSITGREHAKHHLERLFKQMEFRITVDRVEVHNGTATAEIHWSSDRNGKPDSNTRRMTAEVHNGKIKQIVFKSDS” showed a protease stability score of 1.02.

Turning to “DEEVKDFAEKMLKNWHTGNWQHFAKLLDENAKIVIGDKRYHGTENFERMADSIQKQMSIRIESMSVEVHGEKAKFSATVVENHNGNPTRFHISAEVTVRGDKVDHFNQQNDS”, the protease stability score was 1.04.

“DEEVKHSVDKYLQAVRQGDPDKLREMADENVTVDIGDTTYHGMSEYARRVVERQKKIRIHYDLKSLTVSGNHVKIDQEVVKHHNGKPERNRVTVIMHLNNGRIQSMSVKVDG” came in with a protease stability score of 0.277.

Regarding “DEEVKRLAERILSALERGDPQQISDNFDPNARLEIGDKRIHGREELRKYVDTVRKTQRISIRSFRVSVHNGQVDIDIHFENEHNGDPDERRRSINIQASNGKAKNVVYQDNK”, the protease stability score is -0.336.

Regarding “DEEVKSRADEFIKALKTGDPETISRLMDPNAQVEVGDKTIHGRENIMREIHNLKHRMNLSMEINNVDVQGDTVNIDAVVRFTHNGKPSEHKVDIQVVAQGDKIDHVVFDSTK”, the protease stability score amounted to 1.22.

For “DEEVKSVAEQLMDVLQKGDPKQMSRLADKDVKINVGDKQYDGSEQLEKAVEDWKDEMRFQIEHVSISARGDKANVDFHVEFSFNGKPHSREVKVYIKVHNGRIKYLEYRVDPNEERKIKK”, the protease stability score was -0.267.

As to “DEEVKTLVERLVEALNTGDPDSAMHLVDENAKFQYGDRELHGRENVHKFVEDMKREIRIDMEVKRLRVEPGRVKLTAEFSLSVNGQPDHQSVTMRATAHNGQLKDVQFRLPPEKLEKLKS”, the protease stability score is -0.199.

As to “DEEVKTVAEEFWKAIQTGDPDQVKTQVDENARMRVGDKSIHGSDNISTDVERERKEIKVKYNIQDIRASNGTVRVRMDVRRNHNGKPREHEQTMTQTIDNGKIQDVNISTDG”, the protease stability score is -0.46.

As to “DEEVLDDVVKVMHQNDFSRLKELFDKNATIEVGDKRYHGREEAHKLMDIIKKKVDHVRIDKVHKSGNKVRIDAILEYNGNHMKVVFVIKLHNGQAKNIHIEFTSENLQNKFKTLVD”, the protease stability score worked out at 1.02.

Consider “DEEVLDFVKTMIKVEETGDEEKLKEMFDKNVKARVGDKKYHGMDHQARTIRKERESIKFKIKSITMRYKDGRVHASARVVRHENGKPDEYRETYVLQIHNGKVKTYSKQTDS”, for which the protease stability score was -0.188.

As to “DEEVLDTVLKALSTNNEEQFHRMADPNDRVSYGDKSIHGMVKAADVQREFRKRVDHIHIQRYDSEGDKAKVTYVAHVDGRNINITITFDVRNGTIRSINIRARNEKNQKRFEEVVG”, the protease stability score is 0.245.

In turn, “DEEVLEEAKKRVETNDPQEFAHNVDENAEMTIGDKQYTGRDQFKHVADAWYERADKIEIKSYTTHNGKIHVNMRMRFDGRDIVFIVEFRVKNGRVQEYKFHVRDETAKTLQQQMLS” showed a protease stability score of 0.231.

The sequence “DEEVLEQVKKYIDAEKSNDPDQAVKLFDENADMQIGDKRVNGREQIKTEIERRIREMNRDVEVTHVHVDNGRATLTVRLRFTVNGKPHEDRFIIQAHATNGRINTLTVHFDEQSKRDVDK” registered a protease stability score of 0.741.

Take “DEEVLHLADRWWEAVDRGNERQLKDNADPNVKVRVGDKTIRGRDQMAKEVRHRREEQRVNYHHFRQDVSGDKANVTVHYTREHNGKPETNVIEVVFQAHNGKIVSITVRHDG”: the protease stability score is -0.148.

The sequence “DEEVLKVAHDWFENVTQGDPDKLSRLMDKDARVNVGEKQYHGREEIMRQHERENKEAEVTFQKMDFKVTGDRAVVNVRVDVNINGQPFEVTFIFKLEVHNGRIKQIEMDFSEEQWDKLRR” yielded a protease stability score of -0.211.

Sequence “DEEVLQEYREAFEEGDEERIQNLADENVKVTYGDKDYHGRHDMRKFMKWLKRAADRIEIKRYTQTGDKLRIVVVMHVNGQTIKFSVVVRVHNGNVKSVRMDATSEEDRKHFERVVD” registered a protease stability score of 0.755.

The sequence “DEEVNHQMSRMWEANKRGDEHTLRELVDPNAKIDVGDKRVHGMEEYVKQVRNRREDLRWRFKIDHMSVDGDTVKFRARAVENENGRPQSYKFEQNVRVHNGKLTEQNQQDHG” yielded a protease stability score of 0.181.

Turning to “DEEVQELVERIMTAFRTGNPEEVHKNLDPNAHIEVGDKRLHGMETIVHTIERKLRHARIDMKIDEMEVRNGRVEARVSFHVDVNGEPYSNSFSFQIEARNGKVKKVRVQIDPRDQRKMDS”, the protease stability score was determined as 0.877.

The sequence “DEEVQNLFEELVEAVKTGDEDRLRENVDPNATFEYGDKTFHGMDTFVKTVKKIRESMRLTLEVKSYEVQGDKVKAEVDAKQDHNGQPVSYTMDLHIDARNGKVKRIVRQVPEEDKTRIER” yielded a protease stability score of -0.032.

For the sequence “DEEVQRQLENNWQKMREGDEEHLTRHVDENARFDVGDKRVRGMENYVKDVRREREEMHVNMTYDDMHVQGNEIRFTVRARWDVNGKPYDDNFDHKYEYHNGRLKSAHVRVDEDFERKRRK”, the protease stability score was -0.089.

For “DEEVREVVKKMLEALKTGNSEQVRRNIDPNARLHVGEFDYHGQTQISEAVKRLSNEIKINYKDMKMRLHNGRVDVKVHQQNNSNGKPEEKTWRATIVAKNGRIKEIDQRDDK”, the protease stability score is -0.481.

Sequence “DEEVRHVAEEHFRAFSDNDPDRAKQLADPNARFQYGDREIHGMEDFVKHLETLKRDMRIQIHIKSMDVHNGRVDVTFNLMAHVNGQPFRIEVRATFEAHNGHLVEVQYRFDKKWQKTLES” had a protease stability score of 0.861.

In the case of “DEEVRKAYHDAMKAEEKGDEDRIRELFDPNARVQVGDKTYQGREDISHNLAREQKHARYHIKHVDLQVHNGRLTVKQTYDFQHNGQPNSDRDKATIEADGENIKDVEVKQNP”, the protease stability score was -0.27.

Regarding “DEEVSEAVQRYLNALKHNNPDQVQEQMDPNARVQYGDKVLTGREDIKTFMDTKIEQMRLEIKSVSVDVHGEEVRVEADVVYTHNGQPRRNKITITARVHNGVFKSMRVETRG”, the protease stability score was -0.064.

“DEEVVHDLENQFRKNNWEEFARQADENAKVNIGEFEISGRSQIEEWAHRVKKQVDHIDVKHVSYDEDHLRMRVVVVVNGRKFDFEVIINVSNGEVKHMEVRFRDPSQETEWLNQIN” registered a protease stability score of 1.61.

In turn, “DEEVVKLLLELMKAWRTGDRDKAVKLMDPNVEIQVGDTYIHGREQNREEIKRIKDEIRWELSVKSYNQHNGQARIDADVTINVDGHPTHYRVDIRAEATNGEVKKITYNVPEEVLEEVKR” registered a protease stability score of 0.026.

Sequence “DEEVVRQIEDNLNAQRRNDHEKLKENMDPNATVNVGDKQIHGMSQFAQHVRDMFRHIRRSIKDFRIEVRPNHANVDVKFEVNINGKPESMSANVSVRVTNGTVQEMTIRVDPEHVKRIRR” gave a protease stability score of 0.816.

For the sequence “DEEWEETMTRLVKTGDFQSLVRLAPEDVKYVVGEKRIHGREHASEFAKKLTEQIDRIQVKEMHVSGDRVRADFELEFNGRKLKAVLVVKIHGDKVREVMIEVTDEHDEDILREIDD”, the protease stability score was 0.8.

Turning to “DEEWLHRFLQQYRSGDEDQMVRNMDKDVKIDVGDKEIHGREEAERWYRELKKRIDHFEVDHIKIQGESATADVRMNVNGRDVKFTLHVEAHNGRVKYVRLQATSSEVKTRMDRALG”, the protease stability score was 0.198.

Regarding “DEEYAHQLREFLEAWVSGDENRAKQLADPNARVNVGEERISGMDEFMKEVRKRKKEMRIEVKHIKIEVRPNKAKADVKFRVNFNGTPFDVNQKWQAHWHNGKLHSVTVNMDEDQKRFEKG”, the protease stability score is 0.451.

As to “DEEYNKKVQDIFNTNDPSQFKSLIDPNARMEVGDHVFHGRHNIVKHLKKFRDQVDHFEIKEIDVKGNKLSMEFVAVVNGKRVRATMSQQAHNGRMQEIRIKATSEEDKKILKEVTS”, the protease stability score was -0.048.

The values are drawn from the NTF2 design screens of Basanta et al. (2020).
